{
  "source": "paper PMC3672139",
  "about": "“Aptamer Selection Based on G4-Forming Promoter Region”",
  "key": {"PDGF-AA": {"target": "PDGF-AA (human, UniProt P04085 87-211)", "test": "SPR; 10 mM Tris-HCl, 150 mM NaCl, 5 mM KCl, pH 7.4; EMSA room temperature 30 min, 12% PAGE in TBE; SPR 25 C (RB1 SPR with 650 mM NaCl)", "conditions": "protein: recombinant, chain copies: 2"}, "VEGF165": {"target": "VEGF165 (human, UniProt P15692-4 27-191)", "sequence (P15692 other isoform, or with tags, fused parts or gaps)": "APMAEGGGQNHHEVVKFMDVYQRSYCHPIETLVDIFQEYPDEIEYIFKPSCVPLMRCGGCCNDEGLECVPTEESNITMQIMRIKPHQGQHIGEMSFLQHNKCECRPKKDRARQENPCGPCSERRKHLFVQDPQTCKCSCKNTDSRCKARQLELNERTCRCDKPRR", "test": "SPR; 10 mM Tris-HCl, 150 mM NaCl, 5 mM KCl, pH 7.4; EMSA room temperature 30 min, 12% PAGE in TBE; SPR 25 C (RB1 SPR with 650 mM NaCl)", "conditions": "protein: recombinant, chain copies: 2"}, "[1]": {"target": "c-KIT intracellular domain (human, UniProt P10721 544-976)", "sequence (P10721 544-976)": "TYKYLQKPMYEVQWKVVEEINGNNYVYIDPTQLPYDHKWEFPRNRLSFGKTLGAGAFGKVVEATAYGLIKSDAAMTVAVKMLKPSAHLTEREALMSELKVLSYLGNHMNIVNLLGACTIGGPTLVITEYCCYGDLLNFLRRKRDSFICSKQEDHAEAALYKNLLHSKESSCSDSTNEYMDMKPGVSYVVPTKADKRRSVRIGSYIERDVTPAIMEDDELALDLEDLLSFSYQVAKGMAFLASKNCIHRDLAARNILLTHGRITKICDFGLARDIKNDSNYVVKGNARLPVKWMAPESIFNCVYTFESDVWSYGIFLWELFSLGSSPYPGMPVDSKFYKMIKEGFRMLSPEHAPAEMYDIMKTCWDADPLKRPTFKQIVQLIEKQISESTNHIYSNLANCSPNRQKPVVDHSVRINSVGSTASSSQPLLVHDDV", "test": "EMSA; 10 mM Tris-HCl, 150 mM NaCl, 5 mM KCl, pH 7.4; EMSA room temperature 30 min, 12% PAGE in TBE; SPR 25 C (RB1 SPR with 650 mM NaCl)", "conditions": "protein: recombinant; label: 5'-FITC; G4"}, "VEGF121": {"target": "VEGF121 (human, UniProt P15692-9 27-147)", "sequence (P15692 other isoform, or with tags, fused parts or gaps)": "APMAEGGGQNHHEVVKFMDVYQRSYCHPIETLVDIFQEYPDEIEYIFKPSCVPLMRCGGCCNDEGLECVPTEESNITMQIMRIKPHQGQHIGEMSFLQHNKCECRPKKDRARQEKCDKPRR", "test": "EMSA; 10 mM Tris-HCl, 150 mM NaCl, 5 mM KCl, pH 7.4; EMSA room temperature 30 min, 12% PAGE in TBE; SPR 25 C (RB1 SPR with 650 mM NaCl)", "conditions": "protein: recombinant, chain copies: 2"}, "VEGF121, human": {"target": "VEGF121, human (Homo sapiens (Human), UniProt P15692 27-147)", "test": "EMSA; 2.6 uM VEGF121", "conditions": "chain copies: 2"}, "VEGF165, human": {"target": "VEGF165, human (Homo sapiens (Human), UniProt P15692 27-191)", "test": "SPR; 10 mM Tris-HCl pH 7.4, 150 mM NaCl, 5 mM KCl, 25 C; protein amine-coupled on CM5", "conditions": "chain copies: 2"}, "PDGF-AA, human": {"target": "PDGF-AA, human (Homo sapiens (Human), UniProt P04085 87-211)", "test": "SPR; 10 mM Tris-HCl pH 7.4, 150 mM NaCl, 5 mM KCl, 25 C; protein amine-coupled on CM5", "conditions": "chain copies: 2"}, "RB1, human": {"target": "T1, RB1, human (Homo sapiens (Human), UniProt P06400)", "T1 sequence": "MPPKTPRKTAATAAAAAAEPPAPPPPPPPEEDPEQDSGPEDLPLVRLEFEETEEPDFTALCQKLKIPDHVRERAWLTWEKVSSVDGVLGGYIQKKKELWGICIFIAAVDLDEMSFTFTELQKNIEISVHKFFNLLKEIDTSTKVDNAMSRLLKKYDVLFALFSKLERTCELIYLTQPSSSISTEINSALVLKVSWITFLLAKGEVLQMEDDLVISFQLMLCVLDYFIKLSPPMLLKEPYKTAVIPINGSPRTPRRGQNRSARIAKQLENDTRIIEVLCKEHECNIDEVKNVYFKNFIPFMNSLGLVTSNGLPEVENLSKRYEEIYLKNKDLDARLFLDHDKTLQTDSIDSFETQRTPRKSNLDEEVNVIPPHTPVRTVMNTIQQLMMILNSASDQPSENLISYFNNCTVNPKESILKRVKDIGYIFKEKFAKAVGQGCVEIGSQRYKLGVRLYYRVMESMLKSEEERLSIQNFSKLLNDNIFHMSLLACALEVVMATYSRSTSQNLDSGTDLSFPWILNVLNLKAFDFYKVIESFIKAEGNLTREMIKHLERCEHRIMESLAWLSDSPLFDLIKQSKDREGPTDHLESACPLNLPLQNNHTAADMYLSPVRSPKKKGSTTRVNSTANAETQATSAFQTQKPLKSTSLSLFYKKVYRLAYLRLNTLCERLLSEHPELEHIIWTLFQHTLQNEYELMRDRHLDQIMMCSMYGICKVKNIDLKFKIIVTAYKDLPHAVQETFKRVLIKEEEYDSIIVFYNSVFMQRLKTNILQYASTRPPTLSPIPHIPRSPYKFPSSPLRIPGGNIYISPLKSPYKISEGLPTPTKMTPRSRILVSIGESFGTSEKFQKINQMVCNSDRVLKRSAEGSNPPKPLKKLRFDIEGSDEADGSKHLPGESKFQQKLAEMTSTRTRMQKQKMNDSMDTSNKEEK", "test": "SPR; 10 mM Tris-HCl pH 7.4, 650 mM NaCl, 5 mM KCl, 25 C; DNA on SA chip, Scatchard", "conditions": "label: 5'-biotin"}, "[2]": {"conditions": "label: none (SPR), not expected to form G4"}, "[3]": {"conditions": "label: 5'-TAMRA (gel shift), parallel G4, monomeric and multimeric bands"}, "[4]": {"conditions": "label: 5'-FITC (gel shift), none (SPR), parallel G4"}, "[5]": {"conditions": "label: 5'-TAMRA (gel shift), 5'-biotin (SPR to RB1), antiparallel G4"}},
  "data": [
    {"binder": "GGAGGCTTTTTTTTTTTTTCTTTTTCTTTTTCTTTTTATTTTCGCGGC (ssDNA)", "note": "[PDGFA G4 Mut.]", "values": [
      {"measurement": "binding result", "setting": "PDGF-AA; [2]", "value": "no binding"}
    ]},
    {"binder": "GGTTGGTGTGGTTGG (structured_DNA)", "note": "[TBA (15-mer thrombin-binding aptamer)]", "values": [
      {"measurement": "binding result", "setting": "PDGF-AA; label: none, G4", "value": "no binding"},
      {"measurement": "binding result", "setting": "VEGF165; label: none, G4", "value": "no binding"}
    ]},
    {"binder": "CGGGCGGGCGCGAGGGAGGGG (structured_DNA)", "note": "[c-KIT G4-1]", "values": [
      {"measurement": "binding result", "setting": "[1]", "value": "no binding"}
    ]},
    {"binder": "AGGGAGGGCGCTGGGAGGAGGG (structured_DNA)", "note": "[c-KIT G4-2]", "values": [
      {"measurement": "binding result", "setting": "[1]", "value": "no binding"}
    ]},
    {"binder": "GGAGGCGGGGGGGGGGGGGCGGGGGCGGGGGCGGGGGAGGGGCGCGGC (structured_DNA)", "values": [
      {"measurement": "binding result", "setting": "VEGF121; [3]", "value": "no binding"},
      {"measurement": "Kd", "setting": "VEGF165; [3]", "value": 10, "unit": "nM"}
    ]},
    {"binder": "GGAGGCGGGGGGGGGGGGGCGGGGGCGGGGGCGGGGGAGGGGCGCGGC (structured_DNA, G-quadruplex (promoter-derived))", "values": [
      {"measurement": "binding result", "setting": "VEGF121, human; label: TAMRA", "value": "no binding"},
      {"measurement": "Kd", "setting": "VEGF165, human", "value": 10, "unit": "nM"}
    ]},
    {"binder": "CGGGGGGTTTTGGGCGGC (structured_DNA, G-quadruplex (promoter-derived))", "values": [
      {"measurement": "binding result", "setting": "VEGF121, human; label: TAMRA", "value": "no binding"},
      {"measurement": "Kd", "setting": "VEGF165, human", "value": 300, "unit": "nM"},
      {"measurement": "binding result", "setting": "PDGF-AA, human", "value": "no binding"}
    ]},
    {"binder": "GGGGCGGGCCGGGGGCGGGGTCCCGGCGGGGCGG (structured_DNA)", "values": [
      {"measurement": "binding result", "setting": "VEGF121; [4]", "value": "no binding"},
      {"measurement": "binding result", "setting": "PDGF-AA; [4]", "value": "no binding"},
      {"measurement": "Kd", "setting": "VEGF165; [4]", "value": 170, "unit": "nM"}
    ]},
    {"binder": "GGGGCGGGCCGGGGGCGGGGTCCCGGCGGGGCGG (structured_DNA, G-quadruplex (promoter-derived))", "values": [
      {"measurement": "binding result", "setting": "VEGF121, human; label: FITC", "value": "no binding"},
      {"measurement": "binding result", "setting": "PDGF-AA, human", "value": "no binding"}
    ]},
    {"binder": "GTTTCTTTCCGGTTTCGTTTTCCCGGCGGGGCGG (ssDNA)", "note": "[VEGFA G4 Mut.]", "values": [
      {"measurement": "binding result", "setting": "VEGF165; [2]", "value": "no binding"}
    ]},
    {"binder": "CGGGGGGTTTTGGGCGGC (structured_DNA)", "values": [
      {"measurement": "binding result", "setting": "VEGF121; [5]", "value": "no binding"},
      {"measurement": "binding result", "setting": "PDGF-AA; [5]", "value": "no binding"},
      {"measurement": "Kd", "setting": "VEGF165; [5]", "value": 300, "unit": "nM"}
    ]},
    {"binder": "CGTTTTGTTTTGGGCGGC (ssDNA)", "note": "[RB1 G4 mutant]", "values": [
      {"measurement": "binding result", "setting": "RB1, human", "value": "no binding"}
    ]},
    {"binder": "GGTTGGTGTGGTTGG (structured_DNA, G-quadruplex)", "note": "[TBA]", "values": [
      {"measurement": "binding result", "setting": "VEGF165, human", "value": "no binding"},
      {"measurement": "binding result", "setting": "PDGF-AA, human", "value": "no binding"}
    ]}
  ]
}
